Reference: PMC8221199, “Semisynthetic ‘designer’ p53 sheds light on a phosphorylation–acetylation relay†”

B1: GADD45 unlabelled competitor (dsDNA)
DNA 1: GTACAGAACATGTCTAAGCATGCTGGGGAC
DNA 2: GTCCCCAGCATGCTTAGACATGTTCTGTAC
B2: GADD45 target (dsDNA)
DNA 1: B1 DNA 1
DNA 2: B1 DNA 2
B3: randomized competitor (dsDNA)
DNA 1: CCACCATACCTTCGATTATCGCGCCCACTC
DNA 2: GAGTGGGCGCGATAATCGAAGGTATGGTGG

Experiments:
[1] = target: T1, p53rec (UniProt P04637 1-393); experiment: competition; 1 uM competitor vs 20 nM labelled GADD45; EMSA: 0.4 uM p53 variant (0.1 uM tetramer), 20 nM 32P-DNA, 1 uM unlabelled competitor where used, 20 min at RT, native gel; a p53 369-383 peptide was synthesized for the EMSAs; buffer, salt and pH not in the material; conditions: protein: recombinant; tags: untagged; chain copies: 4; label: none (unlabelled)
T1 sequence (P04637 whole entry): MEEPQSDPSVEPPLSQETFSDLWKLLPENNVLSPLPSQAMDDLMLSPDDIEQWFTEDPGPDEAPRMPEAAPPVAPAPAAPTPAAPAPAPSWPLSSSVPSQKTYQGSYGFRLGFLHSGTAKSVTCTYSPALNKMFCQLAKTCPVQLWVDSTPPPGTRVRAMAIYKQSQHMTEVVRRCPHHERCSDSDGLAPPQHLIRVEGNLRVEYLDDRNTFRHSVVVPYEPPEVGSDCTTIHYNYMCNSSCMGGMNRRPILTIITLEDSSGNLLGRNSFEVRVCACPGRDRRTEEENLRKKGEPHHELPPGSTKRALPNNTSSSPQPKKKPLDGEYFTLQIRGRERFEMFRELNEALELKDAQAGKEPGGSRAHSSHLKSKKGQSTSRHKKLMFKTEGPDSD

[2] = target: T1, p53rec; experiment: EMSA; 0.4 uM p53 (0.1 uM tetramer), 20 nM DNA; EMSA: 0.4 uM p53 variant (0.1 uM tetramer), 20 nM 32P-DNA, 1 uM unlabelled competitor where used, 20 min at RT, native gel; a p53 369-383 peptide was synthesized for the EMSAs; buffer, salt and pH not in the material; conditions: protein: recombinant; tags: untagged; chain copies: 4; label: 32P

Row | Binder | binding result [1] | binding result [2]
1 | B1 | binds | –
2 | B2 | – | binds
3 | B3 | no binding | –
